Experimental data from PMC9123187.

Tests used:
[1] = target: Cas7d, backbone subunit of type I-D Cascade (Synechocystis); assay: cryo-EM structure; type I-D Cascade (co-expressed subunits with crRNA, purified as a complex) bound to a dsDNA target with GTT PAM, 1:2 Cascade:target, 30 °C 30 min; 2.9 Å
[2] = target: Cas11d, small subunit of type I-D Cascade (Synechocystis); assay: as above
[3] = target: Type I-D Cascade WT (assay sample) (Synechocystis) (UniProt Q6ZEI7+Q6ZEI6+Q6ZEI5+Q6ZEI7); assay: EMSA; details: EMSA: 10 mM HEPES-NaOH pH 7.5, 100 mM KCl, 5% glycerol, 1 mM DTT, 0.01% Triton X-100, 1 µg BSA, 0.1 µg poly(dI.dC) (dsDNA) or 0.26 µg E. coli tRNA (ssRNA) in …

Row | Substance | Kd [3] [nM] | also measured
1 | Cas7d, backbone subunit of type I-D Cascade (natural protein) |  | stoichiometry N [1]: 7
2 | Cas11d, small subunit of type I-D Cascade (natural protein) |  | stoichiometry N [2]: 2
3 | GCAUGACGGAUCGAGGCAUUGAAAGCGACCGCCAGGGGCACAACAAUCACGGUGAUACUA / ACUGAAACGAUUGUUGUGCCCCUGGCGGUCGCUUUCAAUGCCU [PF5591 ACG-PFS ssRNA + crRNA] | 11 | 
4 | GCAUGACGGAUCGAGGCAUUGAAAGCGACCGCCAGGGGCACAACAAUCAACGUGAUACUA / ACUGAAACGAUUGUUGUGCCCCUGGCGGUCGCUUUCAAUGCCU [PF3167 AAC-PFS ssRNA + crRNA] | 11 | 
